The results in this text go back to patent US8367390B2, “Galactanase variants” (Novozymes A/S, priority 2002, dated 2013).

Test [1] in a line: HPAE-PAD check of transglycosylation products from ONPG. Type of test: biochemical. The settings on record: HIGAL 110 μg/ml; ONPG 5 mg/ml with and without Gal2 or Gal3 0.05 mg/ml; room temperature, pH 6.5. The procedure:
Using HPAE-PAD chromatography (Dionex LC-500 System, PA-100 column, linear gradient of 0-0.6 M sodium acetate in 100 mM NaOH), the production of larger oligosaccharides from transglycosylation upon incubation of HIGAL (110 μg/ml) at room temperature (0.5 to 14 min followed by heat inactivation for 10 min at 95° C. resulting in A405: 0.15-0.67) in 50 mM sodium acetate, 1 mM CaCl2, 0.01% Triton X-100, pH 6.5 with ONPG (5 mg/ml) with and without Gal2 (0.05 mg/ml) or Gal3 (0.05 mg/ml) as acceptor was verified.

Test [2] can be described thus: Activity on lactose, products by HPAE-PAD. It counts as biochemical. The settings on record: lactose 100 mg/ml, 50° C., pH 6.45. How it is done:
HIGAL (60 micrograms/ml) and MTGAL (750 μg/ml) were incubated at 50° C. with lactose (Lac) (100 mg/ml) at pH 4.8 (25 mM sodium citrate), 6.45 (25 mM sodium acetate, 0.5 mM CaCl2, 0.005% Triton X-100) and 8.6 (50 mM Tris, 0.01% Brij 35). 20 microliters samples were withdrawn after 2, 23 and 120 hours, 980 water added and enzyme inactivated by heating to 95° C. for 10 min. After a further 20 time dilution with water, samples were analysed using HPAE-PAD (Dionex LC-500 system, PA-100 column, 0-3 min: 150 mM NaOH, 3-19 min: linear gradient 0-0.18 M sodium acetate in 150 mM NaOH). Response factors for the individual peaks were estimated from standards of Gal, Glu, Lac, Gal2, Gal3 and Gal4.
In Tables 12 and 13 weight fractions of the analysed products with MTGAL at pH […] and 6.45 are given. The figures indicate weight % of the products resulting from the incubation. The term DP3 indicates transglycosylation product consisting of three sugar units, and the term DP4+ transglycosylation products consisting of four or more sugar units. Unfortunately, the analysis method used was not able to separate Glu and Gal.

B1: HIGAL: GH Family 53 galactanase from Humicola insolens, SEQ ID NO: 2 (wild type parent) (protein, listed as Humicola insolens)
chain: ALQYKGVDWSSVMVEERAGVRYKNVNGQEKPLEYILAENGVNMVRQRVWVNPWDGNYNLDYNIQLARRAKAAGLGLYINFHYSDTWADPAHQTTPAGWPSDINNLAWKLYNYTLDSMNRFADAGIQVDIVSIGNEITQGLLWPLGKTNNWYNIARLLHSAAWGVKDSRLNPKPKIMVHLDNGWNWDTQNWWYTNVLSQGPFEMSDFDMMGVSFYPFYSASATLDSLRRSLNNMVSRWGKEVAVVETNWPTSCPYPRYQFPADVRNVPFSAAGQTQYIQSVANVVSSVSKGVGLFYWEPAWIHNANLGSSCADNTMFTPSGQALSSLSVFHRI
modifications: mat_peptide (1)..()
Consider B1, for which the “Production of larger oligosaccharides from transglycosylation” value in test [1] is “verified”.

B2: MTGAL: GH Family 53 galactanase from Myceliophthora thermophila, SEQ ID NO: 1 (wild type parent) (protein, listed as Myceliophthora thermophila)
chain: ALTYRGVDWSSVVVEERAGVSYKNTNGNAQPLENILAANGVNTVRQRVWVNPADGNYNLDYNIAIAKRAKAAGLGVYIDFHYSDTWADPAHQTMPAGWPSDIDNLSWKLYNYTLDAANKLQNAGIQPTIVSIGNEIRAGLLWPTGRTENWANIARLLHSAAWGIKDSSLSPKPKIMIHLDNGWDWGTQNWWYTNVLKQGTLELSDFDMMGVSFYPFYSSSATLSALKSSLDNMAKTWNKEIAVVETNWPISCPNPRYSFPSDVKNIPFSPEGQTTFITNVANIVSSVSRGVGLFYWEPAWIHNANLGSSCADNTMFSQSGQALSSLSVFQRI
modifications: mat_peptide (1)..()
Regarding B2, in test [2] (incubation time 2 hours), the DP3 in products was found to be 1.4 weight %, the Glu/Gal in products turned out to be 1.0 weight % and the Lac/Gal2 in products was 95.7 weight %. In test [2] (incubation time 23 hours), this molecule registered a DP3 in products of 6.3 weight %, a Glu/Gal in products of 6.5 weight % and a Lac/Gal2 in products of 85.3 weight %. In addition, the Glu/Gal in products in test [2] (incubation time 120 hours) is listed as 21.0 weight %.
